According to the supplement of paper PMC9170038:

Tested on: MS2 coat protein
Test: apparent KD of MS2 coat protein; designed switch direction (-1 OFF switch, 1 ON switch): 1; higher = weaker reporter binding
In short: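 Three titration conditions were used: no input, 200 uM small-molecule ligand, and an oligonucleotide input. In each, SNAP-549-labelled MS2 coat protein was raised from 0.7 or 1.5 nM, doubling, to 3 µM over designed RNA switches transcribed on Illumina chips by stalled E. coli RNA polymerase. Curve fits of normalised cluster fluorescence gave values whose per-design median over clusters is the apparent KD.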

[1] = Eterna round: R95, input ligand: FMN 200 uM
[2] = Eterna round: R95, input ligand: microRNA oligo, concentration not stated
[3] = Eterna round: R95, input ligand: none
[4] = input ligand: microRNA oligo, concentration not stated

Sequence	apparent KD of MS2 coat protein [1]	apparent KD of MS2 coat protein [2]	apparent KD of MS2 coat protein [3]	apparent KD of MS2 coat protein (input ligand: FMN 200 uM)	apparent KD of MS2 coat protein [4]	apparent KD of MS2 coat protein (input ligand: none)
ACCAAUCCAAUAAAACAAGCGUGCUCGUCACAUGAGGAUCACCCAUGUUUAAGCGCUGUUCCUAAUUCCUCAGCGCC [Isoreder] (puzzle: Sensor for hsa-mir-208a)	182 nM	28.8 nM	168 nM			
CGACACACGGCAGGAUAUCGAUUCCAAAGGAAUCGAGAAGGGCCUCAUGUCGUGGAAACGUGACAUGAGGAUCACCCAUGUUGC [Omei SS(NG)1 Cv18] (Eterna round: R96, puzzle: Same State NG 1)				26.8 nM	11.6 nM	24.6 nM
AGAUGUUAAUCAGGAUAUGGGCACAUGAGGAUCACCCAUGUAAUUUCGAUACUAUGUGGAGACGUCUAGAAGGGAUGGCUAACA [SameState NG2 #85] (Eterna round: R96, puzzle: Same State NG 2)				162 nM	101 nM	134 nM
GAUCGUUUGAUAGGAUAUCGCUAUACAUGAGGAUCACCCAUGUUUACCACGCUGGUUUUUCAUACCGAGAAGGAUUCUGAUGAG [salish99_SSNG02_r04_008] (Eterna round: R96, puzzle: Same State NG 2)				64.8 nM	49.7 nM	56.1 nM
UUAAUGAAGUAAGGAUAUACAUGAGGAUCACUCGUAGAAGGUACUAUACAUGAGGAUCACCCAUGUGCCGGUCCGUAGACUGGA [JL SSNG1 1.03] (Eterna round: R96, puzzle: Same State NG 1)				554 nM	184 nM	1090 nM
CGAAAGAAGCGAGGAUAUGCAGAGGAUCACCCUGCAGAAGGCGCAAAAGCGAGGAUAUGCAGAGGAUCACCCUGCAGAAGGCGC [pwkr ssNG DX.32] (Eterna round: R96, puzzle: Same State NG 1)				20.2 nM	20.5 nM	18.1 nM
GAGUAGUUGAUAGGAUAUUGAUUGUUAUAGGAUCAAGAAGGAUCUAACAUGAGGAUCACCCAUGUAGGACUAUUCCUGUGUAUC [Parity 84 - Jieux - Same State NG 1] (Eterna round: R96, puzzle: Same State NG 1)					16.9 nM	
AAGGAAUGAGCGUAGGAUAUAGGAGAAGUGACAUGAGGAUCACCCAUGUAAAAGGAGGGAUGAGACUAGAAGGACGAGGUAGGAG [JR_SS2_Sub058] (puzzle: Same State 2)	57.9 nM	53.3 nM	81.8 nM			
AACAAUCUAUCUCAGGAUAUCAUGUCAAAGACAUGAGGAUCACCCAUGUACCAGGAAACUGGUUAUGAGAAGGGAGAUAGAUUGU [Mat - Same State 2 - Mod - D23] (puzzle: Same State 2)	157 nM	68.2 nM	268 nM			
AGUCCAGCCUGAGCUGGACAAAAGCAUGUACAUGAGGAUCACCCAUGUUAUGUACAAGCUUUUUGCUCGUCUUAAUA [Zipper 49 - 10] (puzzle: Sensor for hsa-mir-208a)	165 nM	14.3 nM	238 nM			
AGCUAUUACGAAGGAUAUUGUGACAUGAGGAUCACCCAUGUUUGCAUGAUUAAUUGUGAUCACGUCGAGAAGGUUGUACUAACA [SameState NG2 #31] (Eterna round: R96, puzzle: Same State NG 2)				26.2 nM	20.9 nM	29.5 nM
AGAUAACAUGAGGAUCACCCAUGUCAACUAAGUCGAGGAUAUGGGCAUAUUAUAUUAGAACCAGAAGGCGAAUAGA [Mat - Same State 1 - Mod of UCT - D45] (puzzle: Same State 1)	12.6 nM	4.03 nM	27.9 nM			
GUACAUAUUAUAGGAUAUCACGUCGAUUAGACGUGAGAAGGAUAAUCCCACAUGAAUAUUAAUACAUGAGGAUCACCCAUGUAC [SSNG1/18-A2] (Eterna round: R96, puzzle: Same State NG 1)				83.3 nM	66.3 nM	51 nM
